Measurements as given in paper PMC3760615 (The Journal of Cell Biology, 2013).

Molecular target: T1, recombinant His-tagged drebrin ADFH-CC construct (human, UniProt Q16643 1-256)
T1 sequence: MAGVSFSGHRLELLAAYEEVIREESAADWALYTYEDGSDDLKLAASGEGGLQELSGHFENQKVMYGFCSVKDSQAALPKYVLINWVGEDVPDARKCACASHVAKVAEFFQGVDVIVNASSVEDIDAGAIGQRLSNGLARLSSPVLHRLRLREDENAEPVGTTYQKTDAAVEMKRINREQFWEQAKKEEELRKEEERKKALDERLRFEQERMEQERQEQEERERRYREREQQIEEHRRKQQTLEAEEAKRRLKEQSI
Test: co-sedimentation

B1: recombinant His-tagged drebrin BB (blue box) domain (domain or fragment)
chain: VLAAPVEPATADATEIHDAADTIETDTATADTTVANNVPPAATSLIDLWPGNGEGASTLQGEPRAPTPPSGTEVTLAEVPLLDEVAPEPLLPAGEGCATLLNFDELPEPPATFCDPEEVEGESLAAPQTPTLPSALEELEQEQEPEPHLLTNGETTQKEGTQASEGYFSQSQEEEFAQSEELCAKAPPPVFYNKPPEIDITCWDADPVPEEEEGFEGGD
B1: binds.
